# According to US20240116985A1 (published 2024):
# Starred links: 1 amine or outer side, 2 acyl side, 3 side chain; linkers in the order of their positions; H or OH if unused. Positions of bridges follow the written chain, without caps; N, C: chain ends. Non-standard residues stand in square brackets, D forms with d. Primed or numbered codes have the meaning given here. B5(4) = 2,2-bis(4-pentenyl)glycine = 2-amino-2-(pent-4-en-1-yl)hept-6-enoic acid (stitching residue), C=CCCCC(CCCC=C)(N[*:1])C(=O)[*:2]; PyrS2 = (S)-3-amino-1-((pent-4-en-1-yloxy)carbonyl)pyrrolidine-3-carboxylic acid, C=CCCCOC(=O)N1CC[C@@](N[*:1])(C(=O)[*:2])C1; B5(9) = 2-amino-2-(pent-4-en-1-yl)hept-6-enoic acid (2,2-bis(4-pentenyl)glycine), C=CCCCC(CCCC=C)(N[*:1])C(=O)[*:2]; B5(19) = 2-amino-2-(pent-4-en-1-yl)hept-6-enoic acid (bis(4-pentenyl)glycine), C=CCCCC(CCCC=C)(N[*:1])C(=O)[*:2]; 3Br4FF = (S)-2-amino-3-(3-bromo-4-fluorophenyl)propanoic acid, O=C([C@H](Cc1ccc(F)c(Br)c1)N[*:1])[*:2]; 7F1NapA = 3-(7-fluoronaphthalen-1-yl)-L-alanine, O=C([C@H](Cc1cccc2ccc(F)cc12)N[*:1])[*:2]; 23FF = 2,3-difluoro-L-phenylalanine, O=C([C@H](Cc1cccc(F)c1F)N[*:1])[*:2]; B5(28) = 2,2-bis(4-pentenyl)glycine, C=CCCCC(CCCC=C)(N[*:1])C(=O)[*:2]; Phe(3-CF3) = N[C@@H](Cc1cccc(C(F)(F)F)c1)C(=O)O; Phe(3-COOH) = N[C@@H](Cc1cccc(C(=O)O)c1)C(=O)O; Phe(2-CF3) = N[C@@H](Cc1ccccc1C(F)(F)F)C(=O)O; Phe(3,4-Me2) = Cc1ccc(C[C@H](N)C(=O)O)cc1C; Phe(3-F) = N[C@@H](Cc1cccc(F)c1)C(=O)O; Bta = N[C@@H](Cc1csc2ccccc12)C(=O)O; αAllylPro = C=CC[C@@]1(C(=O)O)CCCN1; tBuAla = CC(C)(C)C[C@H](N)C(=O)O; 3Thi = N[C@@H](Cc1ccsc1)C(=O)O; S8 = C=CCCCCCC[C@](C)(N)C(=O)O
# T1: full-length beta-Catenin (Uniprot ID P35222) (Homo sapiens (Human), UniProt P35222 1-781)
# T1 construct: also called bCat; B-Catenin
# T1 sequence: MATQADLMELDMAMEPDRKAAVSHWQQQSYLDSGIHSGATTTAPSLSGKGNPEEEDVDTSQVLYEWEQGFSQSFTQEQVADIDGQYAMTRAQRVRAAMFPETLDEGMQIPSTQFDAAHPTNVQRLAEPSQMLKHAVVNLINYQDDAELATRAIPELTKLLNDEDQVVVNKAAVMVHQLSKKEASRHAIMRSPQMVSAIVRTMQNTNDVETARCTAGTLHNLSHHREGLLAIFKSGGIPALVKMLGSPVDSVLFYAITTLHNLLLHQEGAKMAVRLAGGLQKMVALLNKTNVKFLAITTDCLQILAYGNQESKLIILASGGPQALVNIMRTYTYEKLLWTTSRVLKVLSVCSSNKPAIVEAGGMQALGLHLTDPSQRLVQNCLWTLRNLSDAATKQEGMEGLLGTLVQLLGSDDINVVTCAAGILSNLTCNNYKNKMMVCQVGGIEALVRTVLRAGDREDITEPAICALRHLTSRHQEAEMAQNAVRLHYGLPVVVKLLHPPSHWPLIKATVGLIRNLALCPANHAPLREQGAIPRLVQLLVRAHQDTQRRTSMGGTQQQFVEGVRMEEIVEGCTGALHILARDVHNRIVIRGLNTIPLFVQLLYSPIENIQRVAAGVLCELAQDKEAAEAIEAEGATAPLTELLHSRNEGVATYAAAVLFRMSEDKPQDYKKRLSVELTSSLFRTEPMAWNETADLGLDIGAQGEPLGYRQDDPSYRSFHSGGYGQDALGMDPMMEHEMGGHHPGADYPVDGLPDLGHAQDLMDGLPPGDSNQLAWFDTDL
# T2: B-cat-Halo (UniProt P35222 1-781)
# T2 sequence (looked up): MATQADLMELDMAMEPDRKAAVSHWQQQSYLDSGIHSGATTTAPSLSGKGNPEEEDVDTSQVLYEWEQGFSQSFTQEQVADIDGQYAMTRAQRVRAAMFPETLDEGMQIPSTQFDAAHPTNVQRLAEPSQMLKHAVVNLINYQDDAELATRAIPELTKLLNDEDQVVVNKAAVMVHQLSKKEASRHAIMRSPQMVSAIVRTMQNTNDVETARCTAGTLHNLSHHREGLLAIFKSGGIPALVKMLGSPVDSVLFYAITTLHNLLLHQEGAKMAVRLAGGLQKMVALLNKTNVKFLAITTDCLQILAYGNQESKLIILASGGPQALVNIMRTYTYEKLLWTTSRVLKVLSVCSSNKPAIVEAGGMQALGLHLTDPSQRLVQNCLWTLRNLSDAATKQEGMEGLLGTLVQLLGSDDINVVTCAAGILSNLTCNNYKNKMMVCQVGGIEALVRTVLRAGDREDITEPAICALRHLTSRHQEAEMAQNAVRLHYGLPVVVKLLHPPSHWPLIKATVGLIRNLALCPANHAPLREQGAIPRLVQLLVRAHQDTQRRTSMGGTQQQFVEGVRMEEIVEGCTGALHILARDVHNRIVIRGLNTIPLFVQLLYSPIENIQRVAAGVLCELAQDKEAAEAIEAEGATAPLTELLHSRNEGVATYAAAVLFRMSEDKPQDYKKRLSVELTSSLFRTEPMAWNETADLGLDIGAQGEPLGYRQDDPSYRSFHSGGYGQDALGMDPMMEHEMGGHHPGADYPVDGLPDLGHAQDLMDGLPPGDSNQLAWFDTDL
# Target: T1, full-length beta-Catenin (Uniprot ID …)
# Assay: fluorescence polarization competition; 10 nM full-length beta-catenin, competitor 10 nM 5FAM-TCF4(10-53)
# Method: The plate was incubated protected from light for 60 minutes at 20° C. prior to read. Reads were performed on a CLARIOstar plate reader (BMG Labtech) in duplicate, and data were fitted to a 1:1 binding model with hill slope using an in-house script. All provided concentrations are final concentrations.
row,Binder,EC50 [µM]
1,"Ac-[αAllylPro]DA[B5(19)]DDAAFV[S8]F[7F1NapA]Q-NH2 (staple 1-4, 4-11, Stapled peptide composition (olefin metathesis)) [I-368]",5
2,"Ac-[αAllylPro]DA[B5(9)]DEAA[23FF]V[S8]F[Bta]Q-NH2 (staple 1-4, 4-11; also: earlier eluting HPLC isomer, E/Z not assigned, Stapled peptide) [I-390]",3.42
3,"XDAXDNAAFVXFXQ (not fully specified; Ac-PL3-Asp-Ala-B5-Asp-Asn-Ala-Ala-Phe-Val-S8-3FF-BztA-Gln-NH2: N-terminal acetyl, C-terminal amide; non-natural PL3(1), B5(4), S8(11), 3FF(12), BztA(13); staples PL3-B5 and B5-S8, Stapled peptide) [I-382]",2.06
4,"Ac-[αAllylPro]DA[B5(9)]DDAA[Phe(3-CF3)]Q[S8]F[Bta]Q-NH2 (staple 1-4, 4-11; not fully specified; printed as Ac-PL3-Asp-Ala-B5-Asp-Asp-Ala-Ala-3F3MeF-Gln-S8-Phe-BztA-Gln-NH2, Stapled peptide) [I-380]",0.552
5,"Ac-[αAllylPro]DA[B5(19)]DDAAHA[S8]F[Bta]Q-NH2 (staple 1-4, 4-11; also: later eluting HPLC staple isomer, Stapled peptide) [I-364]",5
6,"Ac-[αAllylPro]DA[B5(4)]DEAAFA[S8][Phe(3-F)][Bta]Q-NH2 (staple 1-4, 4-11, Stapled peptide composition (olefin metathesis)) [I-372]",2.09
7,"Ac-[αAllylPro]DA[B5(19)]DDAAHA[S8]F[Bta]Q-NH2 (staple 1-4, 4-11; also: earlier eluting HPLC staple isomer, Stapled peptide) [I-363]",5
8,"Ac-[αAllylPro]DA[B5(19)]DDAAFA[S8]H[Bta]Q-NH2 (staple 1-4, 4-11, Stapled peptide composition (olefin metathesis)) [I-362]",3.66
9,"Ac-[αAllylPro]DA[B5(9)]DDAA[Phe(3-CF3)]Q[S8]F[Bta]Q-NH2 (staple 1-4, 4-11; not fully specified; printed as Ac-PL3-Asp-Ala-B5-Asp-Asp-Ala-Ala-3F3MeF-Gln-S8-Phe-BztA-Gln-NH2, Stapled peptide) [I-378]",1.34
10,"Ac-[αAllylPro]DA[B5(9)]DEAAFV[S8][23FF][Bta]Q-NH2 (staple 1-4, 4-11; also: later eluting HPLC isomer, E/Z not assigned, Stapled peptide) [I-389]",5
11,"Ac-[αAllylPro]DA[B5(4)]DDAA[Phe(3-CF3)]A[S8]F[Bta]Q-NH2 (staple 1-4, 4-11; not fully specified; printed as Ac-PL3-Asp-Ala-B5-Asp-Asp-Ala-Ala-3F3MeF-Ala-S8-Phe-BztA-Gln-NH2, Stapled peptide) [I-376]",1.32
12,"Ac-[αAllylPro]DA[B5(4)]DDAA[Phe(3-CF3)]A[S8]F[Bta]Q-NH2 (staple 1-4, 4-11; not fully specified; printed as Ac-PL3-Asp-Ala-B5-Asp-Asp-Ala-Ala-3F3MeF-Ala-S8-Phe-BztA-Gln-NH2, Stapled peptide) [I-374]",3.01
13,"Ac-[αAllylPro]DA[B5(4)]DDAA[Phe(3-CF3)]A[S8]F[Bta]Q-NH2 (staple 1-4, 4-11; not fully specified; printed as Ac-PL3-Asp-Ala-B5-Asp-Asp-Ala-Ala-3F3MeF-Ala-S8-Phe-BztA-Gln-NH2, Stapled peptide) [I-377]",1.32
14,"Ac-[αAllylPro]DA[B5(9)]DDAA[Phe(3-CF3)]Q[S8]F[Bta]Q-NH2 (staple 1-4, 4-11; not fully specified; printed as Ac-PL3-Asp-Ala-B5-Asp-Asp-Ala-Ala-3F3MeF-Gln-S8-Phe-BztA-Gln-NH2, Stapled peptide) [I-379]",1.34
15,"XDAXDNAAFVXFXQ (not fully specified; Ac-PL3-Asp-Ala-B5-Asp-Asn-Ala-Ala-Phe-Val-S8-3FF-BztA-Gln-NH2: N-terminal acetyl, C-terminal amide; non-natural PL3(1), B5(4), S8(11), 3FF(12), BztA(13); staples PL3-B5 and B5-S8, Stapled peptide) [I-381]",3.65
16,"Ac-[αAllylPro]DA[B5(4)]DDAA[Phe(3-CF3)]A[S8]F[Bta]Q-NH2 (staple 1-4, 4-11; not fully specified; printed as Ac-PL3-Asp-Ala-B5-Asp-Asp-Ala-Ala-3F3MeF-Ala-S8-Phe-BztA-Gln-NH2, Stapled peptide) [I-375]",3.01
17,"Ac-[αAllylPro]DA[B5(19)]DDAAFA[S8][Phe(3-F)][Bta]Q-NH2 (staple 1-4, 4-11, Stapled peptide composition (olefin metathesis)) [I-371]",1.39
18,"Ac-[αAllylPro]DA[B5(9)]DEAAFV[S8][23FF][Bta]Q-NH2 (staple 1-4, 4-11; also: earlier eluting HPLC isomer, E/Z not assigned, Stapled peptide) [I-388]",5

# Target: T2, B-cat-Halo
# Assay: cell-based or functional assay
row,Binder,NanoBRET Abs IC50 [µM]
1,"Ac-[αAllylPro]D[tBuAla][B5(4)]D[Phe(3-COOH)]AAFL[PyrS2][Phe(2-CF3)][3Br4FF]S-NH2 (staple 1-4, 4-11) [I-2289]",9
2,"Ac-[αAllylPro]D[tBuAla][B5(4)]D[Phe(3-COOH)]QAFL[PyrS2][Phe(2-CF3)][3Br4FF]A-NH2 (staple 1-4, 4-11) [I-2290]",7.9
3,"Ac-[αAllylPro]D[tBuAla][B5(4)]D[Phe(3-COOH)]AAFL[PyrS2][Phe(2-CF3)][Phe(3,4-Me2)]S-NH2 (staple 1-4, 4-11) [I-2293]",5.7
4,"Ac-[αAllylPro]D[tBuAla][B5(4)]D[Phe(3-COOH)]AAFL[PyrS2][3Thi][3Br4FF]Q-NH2 (staple 1-4, 4-11) [I-2287]",7.1
5,"Ac-[αAllylPro]D[tBuAla][B5(4)]D[Phe(3-COOH)]QAFV[PyrS2][3Thi][3Br4FF]A-NH2 (staple 1-4, 4-11) [I-2288]",6.7
6,"Ac-[αAllylPro]D[tBuAla][B5(4)]D[Phe(3-COOH)]AAFL[PyrS2][3Thi][Bta]NALALA-NH2 (staple 1-4, 4-11; also: later eluting staple isomer) [I-2282]",3.7
7,"Ac-[αAllylPro]D[tBuAla][B5(4)]D[Phe(3-COOH)]AAFL[PyrS2][3Thi][Bta]NALALALA-NH2 (staple 1-4, 4-11; also: earlier eluting staple isomer) [I-2283]",4.5
8,"Ac-[αAllylPro]D[tBuAla][B5(28)]D[Phe(3-COOH)]QAFV[PyrS2][3Thi][34MeF]A-NH2 (staple 1-4, 4-11) [I-2292]",2.7
9,"Ac-[αAllylPro]D[tBuAla][B5(4)]D[Phe(3-COOH)]AAFL[PyrS2][3Thi][Bta]NALALA-NH2 (staple 1-4, 4-11; also: earlier eluting staple isomer) [I-2281]",4.3
10,"Ac-[αAllylPro]D[tBuAla][B5(4)]D[Phe(3-COOH)]AAFL[PyrS2][3Thi][Phe(3,4-Me2)]Q-NH2 (staple 1-4, 4-11) [I-2291]",4.9
11,"Ac-[αAllylPro]D[tBuAla][B5(4)]D[Phe(3-COOH)]AAFL[PyrS2][3Thi][Bta]NALALALA-NH2 (staple 1-4, 4-11; also: later eluting staple isomer) [I-2284]",12.9
